In the supplement of paper PMC10567573:

B1: INTS4 (parent)
chain: TIIEPAGESDNPLRFTSGLVVALD
B2: ACBD3 (parent)
chain: YVASHKIEKEEQEKKRKEEEERRR

Variants of: B1
Assay: protein stability index of a GFP-peptide fusion (GPS, HEK-293T) (PSI 1-6); higher = more stable
Details: c terminus: a fixed tail appended
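Further: lentivirally expressed fusions sorted by FACS into six bins by GFP to DsRed ratio, PSI derived from sequencing read proportions per bin multiplied by bin number.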

Variant	protein stability index
TIIEPAGESDNPLRFTSGLVHALD	3.27
TIIEPAGESDNPLRFTSGLVYALD	3
TIIEPAGESDNPLRFTSGLVLALD	2.89
TIIEPAGESDNPLRFTSGLVEALD	4.5
TIIEPAGESDNPLPFTSGLVVALD	3.4
TIIEPAGESDNPLEFTSGLVVALD	4.21
TIIEPAGESDNPLDFTSGLVVALD	3.93
TIIEPAGESDNPLRFTSGLMVALD	2.59
TIIEPAGESDNPLRFTSGLEVALD	4.03
TIIEPAGESDNPLRFTSGLTVALD	3.82
TIIEPAGESDNPLRFTSGLGVALD	3.76
TIIEPAGESDNPLRFTSGLYVALD	2.44
TIIEPAGESDNPLRFTSGLFVALD	2.31
TIIEPAGESDNPLRFTSGLWVALD	2.68
TIIEPAGESDNPLRFTSGLHVALD	3.28
TIIEPAGESDNPLRFTSCLVVALD	1.66
TIIEPAGESDNPLRFTSFLVVALD	1.41
TIIEPAGESDNPLRFTSPLVVALD	2.59
TIIEPAGESDNPLRFTSLLVVALD	1.55
TIIEPAGESDNPLRFTSALVVALD	2.42
TIIEPAGESCNPLRFTSGLVVALD	2.08
TIIEPAGESLNPLRFTSGLVVALD	1.85
TIIEPAGESSNPLRFTSGLVVALD	2.72
TIIEPAGESFNPLRFTSGLVVALD	2.65

Variants of: B2
Assay: as above
Details: c terminus: a fixed tail appended

Variant	protein stability index
YVTSHKIEKEEQEKKRKEEEERRR	2.98
YVISHKIEKEEQEKKRKEEEERRR	2.61
YVRSHKIEKEEQEKKRKEEEERRR	2.01
YVPSHKIEKEEQEKKRKEEEERRR	1.47
YVSSHKIEKEEQEKKRKEEEERRR	3.04
YVWSHKIEKEEQEKKRKEEEERRR	2.85
YVESHKIEKEEQEKKRKEEEERRR	2.84
YVNSHKIEKEEQEKKRKEEEERRR	2.39
YVYSHKIEKEEQEKKRKEEEERRR	2.13
YVFSHKIEKEEQEKKRKEEEERRR	3.72
YVDSHKIEKEEQEKKRKEEEERRR	3.91
YVCSHKIEKEEQEKKRKEEEERRR	2.5
YVHSHKIEKEEQEKKRKEEEERRR	2.15
YVKSHKIEKEEQEKKRKEEEERRR	2.95
YVMSHKIEKEEQEKKRKEEEERRR	3.14
YVGSHKIEKEEQEKKRKEEEERRR	2.33
YVQSHKIEKEEQEKKRKEEEERRR	3.36
YVVSHKIEKEEQEKKRKEEEERRR	3.36
YVLSHKIEKEEQEKKRKEEEERRR	3.09
YMASHKIEKEEQEKKRKEEEERRR	5.36
YWASHKIEKEEQEKKRKEEEERRR	4.93
YKASHKIEKEEQEKKRKEEEERRR	5.05
YGASHKIEKEEQEKKRKEEEERRR	5.36
YIASHKIEKEEQEKKRKEEEERRR	4.51

Variant	protein stability index
YSASHKIEKEEQEKKRKEEEERRR	5.25
YPASHKIEKEEQEKKRKEEEERRR	5.11
YQASHKIEKEEQEKKRKEEEERRR	4.57
YFASHKIEKEEQEKKRKEEEERRR	5.16
YAASHKIEKEEQEKKRKEEEERRR	4.73
YNASHKIEKEEQEKKRKEEEERRR	5.04
YCASHKIEKEEQEKKRKEEEERRR	4.4
YTASHKIEKEEQEKKRKEEEERRR	5.24
YYASHKIEKEEQEKKRKEEEERRR	4.75
YHASHKIEKEEQEKKRKEEEERRR	4.14
YRASHKIEKEEQEKKRKEEEERRR	5.49
YDASHKIEKEEQEKKRKEEEERRR	5.36
YLASHKIEKEEQEKKRKEEEERRR	5.22
YEASHKIEKEEQEKKRKEEEERRR	5.85
YVAGHKIEKEEQEKKRKEEEERRR	2.39
YVAHHKIEKEEQEKKRKEEEERRR	2.62
YVAEHKIEKEEQEKKRKEEEERRR	3.05
YVAPHKIEKEEQEKKRKEEEERRR	3.8
YVAQHKIEKEEQEKKRKEEEERRR	3.14
YVALHKIEKEEQEKKRKEEEERRR	2.67
YVAKHKIEKEEQEKKRKEEEERRR	3.67
YVAMHKIEKEEQEKKRKEEEERRR	2.1
YVAAHKIEKEEQEKKRKEEEERRR	2.9
YVAFHKIEKEEQEKKRKEEEERRR	2.07

Variant	protein stability index
YVANHKIEKEEQEKKRKEEEERRR	2.16
YVACHKIEKEEQEKKRKEEEERRR	2.81
YVADHKIEKEEQEKKRKEEEERRR	3.95
QVASHKIEKEEQEKKRKEEEERRR	5.5
SVASHKIEKEEQEKKRKEEEERRR	5.5
FVASHKIEKEEQEKKRKEEEERRR	2.11
CVASHKIEKEEQEKKRKEEEERRR	4.93
RVASHKIEKEEQEKKRKEEEERRR	5.49
NVASHKIEKEEQEKKRKEEEERRR	5.77
IVASHKIEKEEQEKKRKEEEERRR	5
EVASHKIEKEEQEKKRKEEEERRR	5.83
MVASHKIEKEEQEKKRKEEEERRR	5.6
VVASHKIEKEEQEKKRKEEEERRR	5.68
WVASHKIEKEEQEKKRKEEEERRR	5.65
PVASHKIEKEEQEKKRKEEEERRR	5.43
AVASHKIEKEEQEKKRKEEEERRR	5.78
KVASHKIEKEEQEKKRKEEEERRR	5.87
GVASHKIEKEEQEKKRKEEEERRR	4.73
DVASHKIEKEEQEKKRKEEEERRR	5.55
LVASHKIEKEEQEKKRKEEEERRR	5.56
TVASHKIEKEEQEKKRKEEEERRR	5.43
HVASHKIEKEEQEKKRKEEEERRR	5.57
